B1: h53A11-S1 (antibody, V domains shown)
VH: QVQLVQSGAEVKKPGASVKVSCKASGYTFTDYTMHWVRQAPGQRLEWMGGINPYYGGTTYNEKFKDRVTITRDTSASTAYMELSSLRSEDTAVYYCAKGDYYGGSYNYWGQGTTVTVSS
VL: EIVMTQSLATLSVSPGERATLSCRASQDISNSLHWYQQKPGQAPRLLIKYASQSISGIPARFSGSGSGTEFTLTISSLQSEDFAVYYCQQSNSWPYTFGQGTKLEIK
B2: h23H8-S2 (antibody, V domains shown)
VH: QVQLVQSGAEVKKPGASVKVSCKASGYTFTDNTIHWVRQAPGQGLEWMGHINPYYGGTNNNEKFKDRVTMTRDTSISTAYMELSRLRSDDTAVYYCARKGIYYSSPFDYWGQGTTVTVSS
VL: DIQMTQSPSSLSASVGDRVTITCRASQDINNYLNWYQQKPGKAPKLLISYTSKLHSGVPSRFSGSGSGTDFTLTISSLQREDFATYYCQQGNTLPFTFGQGTKLEIK
B3: h13B3-S1 (antibody, V domains shown)
VH: QVQLVQSGAEVKKPGASVKVSCKASGYTFTEYTMHWVRQAPGQGLEWMGSINPYYGGTSYNEKFKDRVTMTRDTSTSTVYMELSSLRSEDTAVYYCARYGNYVGYFDYWGQGTTVTVSS
VL: EIVLTQSPGTLSLSPGERATLSCRASSSVHYMYWYQQKPGQAPRLLIYYTSNLAPGIPDRFSGSGSGTDFTLTISRLEPEDFAVYYCQQFTSSPYTFGGGTKVEIK
B4: h16B3-S2 (antibody, V domains shown)
VH: EVQLVESGGGLVQPGGSLRLSCAASGFTFSGYTMSWVRQAPGKGLEWVSEISFARDRAFYPDTVKGRFTISRDNSKNTLYLQMNSLRAEDTAVYYCARLGGRNHDYWYFDVWGQGTTVTVSS
VL: DIVMTQSPDSLAVSLGERATINCRASESVEYYGTSLMQWYQQKPGQPPKLLIYAASNVESGVPDRFSGSGSGTDFTLTISSLQAEDVAVYYCQQSWKVPFTFGQGTKLEIK
notes: humanized
B5: h55A1-S1 (antibody, V domains shown)
VH: QVQLVQSGSELKKPGASVKVSCKASGYTFTNYGMNWVRQAPGQGLEWMGWINTYSGVPTYAGDFKGRFVFSLDTSVSTAYLQISSLKAEDTAVYYCARRGYYGRRYFDVWGKGTTVTVSS
VL: DIVLTQSPASLAVSPGQRATITCKASQSVDYDVDSYMHWYQQKPGQPPKLLIYAASNLASGVPARFSGSGSGTDFTLTINPVEANDTANYYCQQTIEDPPTFGGGTKVEIK
notes: humanized

Biological target: T1, human EL (vascular endothelial lipase) (human, UniProt Q9Y5X9 21-500)
T1 sequence: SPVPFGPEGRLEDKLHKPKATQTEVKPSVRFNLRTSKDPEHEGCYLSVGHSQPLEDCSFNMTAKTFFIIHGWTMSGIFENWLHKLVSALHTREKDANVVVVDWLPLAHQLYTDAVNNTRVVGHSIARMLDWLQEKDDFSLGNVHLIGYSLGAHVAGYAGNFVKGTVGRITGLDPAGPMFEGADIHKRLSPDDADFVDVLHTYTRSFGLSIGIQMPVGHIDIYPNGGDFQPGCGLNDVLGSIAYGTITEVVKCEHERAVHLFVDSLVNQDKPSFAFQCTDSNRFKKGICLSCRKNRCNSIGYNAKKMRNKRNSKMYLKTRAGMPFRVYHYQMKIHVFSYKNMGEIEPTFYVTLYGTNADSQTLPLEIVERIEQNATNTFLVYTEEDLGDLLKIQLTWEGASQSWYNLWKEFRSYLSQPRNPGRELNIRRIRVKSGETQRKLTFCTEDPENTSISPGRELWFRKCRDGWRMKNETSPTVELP
Test: cell-based or functional assay

First: B1
Second: B2
The “Neutralizing activity IC50” value of the first is 2.2-fold higher: 9.7 nM for the first, 4.5 nM for the second.

Compared with B3, B4 is 2-fold higher in “Neutralizing activity IC50” value: 2.3 nM for the first, 4.6 nM for the second.

In the case of B5, the “Neutralizing activity IC50” value is reported as 3.9 nM.

Biological target: T2, human [1-305]-mouse chimeric EL (human; mouse, UniProt Q9WVG5 306-500)
T2 sequence: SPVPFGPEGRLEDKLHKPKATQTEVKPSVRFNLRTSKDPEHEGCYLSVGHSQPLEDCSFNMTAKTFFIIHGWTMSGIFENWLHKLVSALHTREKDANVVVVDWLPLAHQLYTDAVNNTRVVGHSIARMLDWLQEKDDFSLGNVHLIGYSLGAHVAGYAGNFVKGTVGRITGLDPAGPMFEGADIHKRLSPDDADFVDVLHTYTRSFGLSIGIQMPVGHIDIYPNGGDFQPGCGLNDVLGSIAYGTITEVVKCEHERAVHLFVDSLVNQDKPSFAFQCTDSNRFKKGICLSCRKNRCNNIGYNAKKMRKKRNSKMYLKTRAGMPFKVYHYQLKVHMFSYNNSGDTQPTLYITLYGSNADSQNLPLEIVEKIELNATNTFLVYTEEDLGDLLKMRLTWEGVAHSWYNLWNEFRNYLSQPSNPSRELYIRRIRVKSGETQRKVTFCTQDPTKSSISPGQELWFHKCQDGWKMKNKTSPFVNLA
Test: cell-based or functional assay

B1 and B2 are within 1.5-fold of each other in “Neutralizing activity IC50” value: 2.1 nM for the first, 1.7 nM for the second.

First: B3
Second: B4
The “Neutralizing activity IC50” value of the first is 1.8-fold lower: 3 nM for the first, 5.3 nM for the second.

With B5 the “Neutralizing activity IC50” value was 2.2 nM.

Biological target: cynomolgus monkey EL (cynomolgus monkey)
Test: cell-based or functional assay

B4 and B5 are within 1.5-fold of each other in “Neutralizing activity IC50” value: 1.9 nM for the first, 1.6 nM for the second.

Biological target: T3, human LPL (lipoprotein lipase) (human, UniProt P06858 28-475)
T3 sequence (looked up): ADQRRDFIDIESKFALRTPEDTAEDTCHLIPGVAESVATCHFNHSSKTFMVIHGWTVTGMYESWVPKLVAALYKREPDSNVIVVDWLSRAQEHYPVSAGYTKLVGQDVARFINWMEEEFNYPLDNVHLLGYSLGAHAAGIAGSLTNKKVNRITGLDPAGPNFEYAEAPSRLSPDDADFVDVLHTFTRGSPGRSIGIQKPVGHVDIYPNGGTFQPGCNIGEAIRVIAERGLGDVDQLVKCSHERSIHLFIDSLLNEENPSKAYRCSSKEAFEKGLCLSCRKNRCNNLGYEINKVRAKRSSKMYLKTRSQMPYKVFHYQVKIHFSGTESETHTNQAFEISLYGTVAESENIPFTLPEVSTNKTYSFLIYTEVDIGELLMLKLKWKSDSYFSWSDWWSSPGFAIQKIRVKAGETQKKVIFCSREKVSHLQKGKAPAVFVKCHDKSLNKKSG
Test: cell-based or functional assay

B1 and B2 cannot be ordered by “Neutralizing activity IC50” value: greater than 400 nM for the first, greater than 400 nM for the second.

B3 and B4 cannot be ordered by “Neutralizing activity IC50” value: greater than 400 nM for the first, greater than 400 nM for the second.

B5 was tested, and the “Neutralizing activity IC50” value was greater than 1800 nM.

Biological target: T4, human HL (hepatic lipase) (human, UniProt P11150 23-499)
T4 sequence (looked up): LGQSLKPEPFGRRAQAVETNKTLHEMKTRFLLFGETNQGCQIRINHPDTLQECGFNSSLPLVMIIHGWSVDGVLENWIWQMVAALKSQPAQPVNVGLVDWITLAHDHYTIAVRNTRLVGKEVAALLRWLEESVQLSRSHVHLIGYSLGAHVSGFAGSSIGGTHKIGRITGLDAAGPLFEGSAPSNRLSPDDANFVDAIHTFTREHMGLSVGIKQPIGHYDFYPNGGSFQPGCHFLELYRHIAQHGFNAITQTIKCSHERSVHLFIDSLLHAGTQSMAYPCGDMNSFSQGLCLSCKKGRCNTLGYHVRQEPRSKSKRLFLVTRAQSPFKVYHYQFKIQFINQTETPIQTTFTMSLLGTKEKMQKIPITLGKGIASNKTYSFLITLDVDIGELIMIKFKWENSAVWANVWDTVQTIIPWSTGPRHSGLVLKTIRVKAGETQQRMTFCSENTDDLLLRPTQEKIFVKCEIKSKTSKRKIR
Test: cell-based or functional assay

B1 and B2 cannot be ordered by “Neutralizing activity IC50” value: greater than 400 nM for the first, greater than 400 nM for the second.

B3 and B4 cannot be ordered by “Neutralizing activity IC50” value: greater than 400 nM for the first, greater than 400 nM for the second.

With B5 the “Neutralizing activity IC50” value was greater than 1800 nM.

Biological target: T5, cynomolgus monkey EL (cynomolgus monkey)
T5 construct: Heparin extract; also called cynomolgus EL; Cynomolgus EL
Test: Biacore; EL captured by anti-C2-tag Ab; bivalent fit
Protocol: (§1) The binding affinities of anti-EL antibodies were measured using Biacore. […] Then, anti-EL humanized antibodies were added and the binding affinities were calculated by bivalent fitting of BIAevaluation software.

Compared with B4, B5 is 3.4-fold lower in Kd: 2 nM for the first, 0.59 nM for the second.

First: B4
Second: B5
The koff of the first is 2.6-fold lower: 0.0001 s⁻¹ for the first, 0.00026 s⁻¹ for the second.

Going from B4 to B5, the kon rises from 51000 M⁻¹ s⁻¹ to 440000 M⁻¹ s⁻¹ (8.6-fold).

Biological target: T2, human [1-305]-mouse chimeric EL
Test: as above
Protocol: as §1

Going from B4 to B5, the Kd rises from 9.3 nM to 31 nM (3.3-fold). The first binds more tightly here.

Going from B4 to B5, the koff rises from 0.00022 s⁻¹ to 0.00086 s⁻¹ (3.9-fold).

B4 and B5 are within 1.5-fold of each other in kon: 24000 M⁻¹ s⁻¹ for the first, 27000 M⁻¹ s⁻¹ for the second.
